Source: patent US20150192588A1 (SAMSUNG ELECTRONICS, published 2015)

Molecular target: T1, human c-Met/Fc fusion protein (R&D Systems) (human, UniProt P08581 25-932)
T1 construct: Bought reagent, coated on the ELISA plate at 2 ug/mL; also called human c-Met/Fc protein; not shown: Fc part of the bought fusion protein
Experiment: ELISA, human c-Met/Fc coated at 2 ug/mL, hybridoma culture supernatant, anti-mouse IgG-HRP
Experimental: Human c-Met/Fc fusion protein was seeded in an amount of 50 μL (2 μg/mL)/well to microtiter plates and allowed to adhere to the surface of each well. The antibody that remained unbound was removed by washing.
The hybridoma cell culture obtained in Reference Example 1.1.2 was added in an amount of 50 μL to each well of the plates and incubated for 1 hour. The cells remaining unreacted were washed out with a sufficient amount of Tris-buffered saline and Tween 20 (TBST). Goat anti-mouse IgG-horseradish peroxidase (HRP) was added to the plates and incubated for 1 hour at room temperature. The plates were washed with a sufficient amount of TBST, followed by reacting the peroxidase with a substrate (OPD). Absorbance at 450 nm was measured on an ELISA reader.

T1 sequence (P08581 25-932 limits assumed): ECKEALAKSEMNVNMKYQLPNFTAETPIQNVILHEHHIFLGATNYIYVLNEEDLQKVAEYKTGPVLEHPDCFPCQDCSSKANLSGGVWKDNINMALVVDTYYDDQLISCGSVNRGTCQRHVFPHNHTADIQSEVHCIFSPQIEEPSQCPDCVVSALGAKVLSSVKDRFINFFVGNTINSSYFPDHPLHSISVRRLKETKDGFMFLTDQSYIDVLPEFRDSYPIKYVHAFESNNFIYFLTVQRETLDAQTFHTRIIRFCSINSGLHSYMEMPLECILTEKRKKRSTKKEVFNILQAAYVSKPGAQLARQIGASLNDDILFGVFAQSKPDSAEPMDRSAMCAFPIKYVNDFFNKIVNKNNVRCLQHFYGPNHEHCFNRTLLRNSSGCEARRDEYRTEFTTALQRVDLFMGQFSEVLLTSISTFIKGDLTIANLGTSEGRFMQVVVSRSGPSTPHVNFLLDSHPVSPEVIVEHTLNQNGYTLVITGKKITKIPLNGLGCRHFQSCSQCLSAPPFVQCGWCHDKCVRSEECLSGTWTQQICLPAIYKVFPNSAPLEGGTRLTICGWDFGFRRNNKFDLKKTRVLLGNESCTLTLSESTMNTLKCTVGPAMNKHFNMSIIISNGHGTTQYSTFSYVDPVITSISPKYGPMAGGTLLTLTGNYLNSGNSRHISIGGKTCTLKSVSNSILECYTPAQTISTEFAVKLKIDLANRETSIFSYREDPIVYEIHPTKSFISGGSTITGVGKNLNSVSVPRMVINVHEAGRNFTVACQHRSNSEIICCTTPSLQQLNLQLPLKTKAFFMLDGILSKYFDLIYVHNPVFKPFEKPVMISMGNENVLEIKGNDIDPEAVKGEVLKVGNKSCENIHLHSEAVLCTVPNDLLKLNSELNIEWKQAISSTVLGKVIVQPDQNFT

B1: AbF46, mouse monoclonal antibody to c-Met (hybridoma KCLRF-BP-00220) (antibody, V domains shown)
VH: EVKLVESGGGLVQPGGSLRLSCATSGFTFTDYYMSWVRQPPGKALEWLGFIRNKANGYTTEYSASVKGRFTISRDNSQSILYLQMDTLRAEDSATYYCARDNWFAYWGQGTLVTVSA
VL: DILMTQSPSSLTVSAGEKVTMSCKSSQSLLASGNQNNYLAWHQQKPGRSPKMLIIWASTRVSGVPDRFIGSGSGTDFTLTINSVQAEDLAVYYCQQSYSAPLTFGAGTKLELK
notes: In the screening ELISA it stood as hybridoma culture supernatant; The single clone chosen by this screen produces AbF46; also called mouse antibody AbF46
binding result: binds
